Target: wild type p53 (human cells) (human) (UniProt P04637)
Test: cell-based or functional assay

WAF1 mRNA level in HT1080 cells (Northern blot): 4 to 6 times
Substance: p28^ING1 (alternative splice variant of human ING1)

From patent publication US20030073084A1
